From publication PMC3091828
Where two headings read alike, the source gives them in different places.

Columns and labels:
[1] = biological target: CL-arrestin-2-L33C, bimane-labeled (UniProt P17870); assay: fluorescence polarisation
[2] = biological target: CL-arrestin-2-L33C, bimane-labeled (UniProt P17870); assay: fluorescence polarisation; remark: listed apart in the source

MBP-parkin, sequence (O60260 whole entry): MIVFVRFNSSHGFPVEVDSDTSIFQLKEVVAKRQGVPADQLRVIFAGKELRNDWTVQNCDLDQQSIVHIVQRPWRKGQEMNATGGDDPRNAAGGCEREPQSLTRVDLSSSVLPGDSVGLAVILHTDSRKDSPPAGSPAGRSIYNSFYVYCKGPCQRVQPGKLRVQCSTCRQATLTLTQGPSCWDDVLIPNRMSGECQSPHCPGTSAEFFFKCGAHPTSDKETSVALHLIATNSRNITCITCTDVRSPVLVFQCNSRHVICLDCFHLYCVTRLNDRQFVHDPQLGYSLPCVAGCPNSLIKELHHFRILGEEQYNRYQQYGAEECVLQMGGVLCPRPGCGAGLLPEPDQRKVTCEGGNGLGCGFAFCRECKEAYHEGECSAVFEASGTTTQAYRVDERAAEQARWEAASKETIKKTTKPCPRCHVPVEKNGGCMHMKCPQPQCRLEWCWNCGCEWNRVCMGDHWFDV

Kd [1]: 20.1 µM
Kd [2]: 19 µM
Substance: MBP-parkin (from UniProt O60260 1-465) (enzyme)
